From publication PMC11846896, “Phage parasites targeting phage homologous recombinases provide antiviral immunity” (Nature Communications, 2025)

What was measured:
Stl2-Sak4_52A complex = target: T1, Stl2-Sak4_52A complex (Staphylococcus phage 52A, UniProt Q4ZAS5); assay: cryo-EM structure of the complex ([…] Å); format: binding; conditions: 2 mM ATPγS, 20 mM Tris pH 7.6, 100 mM NaCl, 1 mM DTT, 37 °C 10 min, Stl2 1:1; site at Sak4_52A protomer interface (Lys41, Thr42, Tyr216 of one; Lys229, Arg231, His232 of the next)
T1 construct: both from E. coli BL21, mixed 1:1; with SaPI2 transcriptional repressor Stl (Staphylococcus aureus)

[1] = system: Stl2-ΔCTD (Staphylococcus aureus pathogenicity island SaPI2); assay: EMSA; conditions: EMSA: 20 mM Tris-HCl pH 7.0, 100 mM NaCl, 5% glycerol, 50 ng/µl BSA, 1 ng/µl salmon sperm DNA, 5 mM DTT, 2 nM FAM-DNA, room temperature 30 min; Stl2 + 5 mM …
[2] = target: Sak80α, full-length, untagged, co-expressed with Stl2 from pETDuet-1 (phage 80α (Staphylococcus aureus phage)); assay: cryo-EM structure; Stl2-Sak80α complex co-expressed from pETDuet-1 and co-purified, third elution peak of Superose 6, 1.5 mg/ml; D1 symmetry
[3] = target: Sak80αΔCTD (truncated Sak80α with its CTD removed) (phage 80α (Staphylococcus aureus phage)); assay: cryo-EM structure; Sak80αΔCTD at 1.5 mg/ml in 20 mM Tris-HCl pH 7.6, 100 mM NaCl, 1 mM DTT; C18 symmetry
[4] = target: Stl2 (SaPI2-encoded transcriptional repressor Stl), wild type, C-terminally histidine tagged (Staphylococcus aureus (SaPI2)); assay: mass photometry; single proteins; diluted to 50 to 100 nM in 20 mM Tris pH 8.0, 0.5 mM EDTA, 200 mM NaCl, 2 mM DTT; self-association (dimer and large oligomers)

T1 sequence (A0FIL5 entry or part of it): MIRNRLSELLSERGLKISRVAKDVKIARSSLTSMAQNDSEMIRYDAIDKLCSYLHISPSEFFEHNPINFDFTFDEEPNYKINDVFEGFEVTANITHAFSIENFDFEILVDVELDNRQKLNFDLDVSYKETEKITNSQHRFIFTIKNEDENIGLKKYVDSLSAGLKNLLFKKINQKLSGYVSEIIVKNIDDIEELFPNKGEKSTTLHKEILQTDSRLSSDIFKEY
T1 sequence (Q4ZAS5 entry or part of it): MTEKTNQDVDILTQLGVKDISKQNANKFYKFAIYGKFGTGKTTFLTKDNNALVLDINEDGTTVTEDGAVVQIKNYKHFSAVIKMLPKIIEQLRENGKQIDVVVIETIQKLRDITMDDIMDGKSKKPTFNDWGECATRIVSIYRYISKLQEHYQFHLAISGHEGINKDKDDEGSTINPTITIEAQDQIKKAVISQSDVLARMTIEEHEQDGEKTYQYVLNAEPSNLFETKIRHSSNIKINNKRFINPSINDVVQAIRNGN

**Q.** Nc1ncnc2c1ncn2[C@@H]1O[C@H](COP(=O)(O)OP(=O)(O)OP(O)(O)=S)[C@@H](O)[C@H]1O [ATPγS] was tested. Which “cryo-EM structure of the complex (3.35 Å)” value (Stl2-Sak4_52A complex) did it give?
**A.** The nucleotide ATPγS is boxed and zoomed in on the left-hand side

**Q.** For SaPI2 IGR (stl-str intergenic region), which binding signal (fold reduction in affinity vs wild type) [1] is on record?
**A.** 30

**Q.** For “Sak80α, full-length, untagged, co-expressed with Stl2 from pETDuet-1 (natural protein)”, which stoichiometry N [2] is on record?
**A.** 17

**Q.** For “Sak80αΔCTD (truncated Sak80α with its CTD removed) (domain or fragment)”, which stoichiometry N [3] is on record?
**A.** 18

**Q.** For “Stl2 (SaPI2-encoded transcriptional repressor Stl), wild type, C-terminally histidine tagged (natural protein)”, which stoichiometry N [4] is on record?
**A.** 2
